Experimental findings from paper PMC7261175, “A splice site-sensing conformational switch in U2AF2 is modulated by U2AF1 and its recurrent myelodysplasia-associated mutation” (Nucleic Acids Research, 2019) are described below.

For one data set, the target named is His6SumoMBP-U2AF1;U2AF2 (human;human, UniProt Q01081;P26368-2 1-188;85-471, C67S|). Description: fluorescence anisotropy; Anisotropy: 150 mM NaCl, 25 mM HEPES pH 6.8, 0.5 mM TCEP, 3% glycerol, 20 uM ZnCl2, 0.2 U/ul SUPERase-In; smFRET: 25 mM HEPES pH 7.0, 150 mM KCl, 0.01% octaethylene glycol monododecyl ether, 0.2 mM TCEP, 6 mM BME, 1.5 mM Trolox, oxygen scavenger, room temperature, excess U2AF1 (1000 nM) with heterodimer. The note with it: protein: recombinant;recombinant; tags: N-terminal His6-SUMO-MBP with AAA linker; C-terminal extra Ala;GST cleaved by PreScission; copies: 1;1; label: 5'-fluorescein. In general terms: Fluorescence polarisation rises when a labelled molecule tumbles more slowly, as on binding a larger partner.

Another data set has as its target U2AF1 UHM (dZn);U2AF2 (human;human, UniProt Q01081;P26368-2 43-146;85-471, C67S|). Nature of the data set: fluorescence anisotropy; Kd shown in figure only; Anisotropy: 150 mM NaCl, 25 mM HEPES pH 6.8, 0.5 mM TCEP, 3% glycerol, 20 uM ZnCl2, 0.2 U/ul SUPERase-In; smFRET: 25 mM HEPES pH 7.0, 150 mM KCl, 0.01% octaethylene glycol monododecyl ether, 0.2 mM TCEP, 6 mM BME, 1.5 mM Trolox, oxygen scavenger, room temperature, excess U2AF1 (1000 nM) with heterodimer. Particulars: protein: recombinant;recombinant; tags: GST cleaved by TEV;GST cleaved by PreScission; copies: 1;1; label: 5'-fluorescein.

In another data set the target is U2AF1 untagged;U2AF2 (human;human, UniProt Q01081;P26368-2 1-193;85-471, |). Description: fluorescence anisotropy; Kd in figure only; tag has no significant influence; Anisotropy: 150 mM NaCl, 25 mM HEPES pH 6.8, 0.5 mM TCEP, 3% glycerol, 20 uM ZnCl2, 0.2 U/ul SUPERase-In; smFRET: 25 mM HEPES pH 7.0, 150 mM KCl, 0.01% octaethylene glycol monododecyl ether, 0.2 mM TCEP, 6 mM BME, 1.5 mM Trolox, oxygen scavenger, room temperature, excess U2AF1 (1000 nM) with heterodimer. Particulars: protein: recombinant;recombinant; tags: MBP cleaved by TEV; GSGGGGS linker remains;GST cleaved by PreScission; copies: 1;1; label: 5'-fluorescein.

Data set [1] has as its target U2AF2 Cy3/Cy5 isolated subunit (human, UniProt P26368-2 113-342, A181C;C305A;Q324C). Nature of the data set: smFRET; RNA tethered; preferentially open; Anisotropy: 150 mM NaCl, 25 mM HEPES pH 6.8, 0.5 mM TCEP, 3% glycerol, 20 uM ZnCl2, 0.2 U/ul SUPERase-In; smFRET: 25 mM HEPES pH 7.0, 150 mM KCl, 0.01% octaethylene glycol monododecyl ether, 0.2 mM TCEP, 6 mM BME, 1.5 mM Trolox, oxygen scavenger, room temperature, excess U2AF1 (1000 nM) with heterodimer. Particulars: protein: recombinant, tags: His6 and T7 tags, label: biotin on annealed DNA.

Data set [2] concerns the target T1, His6SumoMBP-U2AF1;U2AF2 Cy3/Cy5 (human;human, UniProt Q01081;P26368-2 1-188;85-342, C67S|A181C;C305A;Q324C). Description: smFRET; RNA tethered; more open than DEK(-3U); Anisotropy: 150 mM NaCl, 25 mM HEPES pH 6.8, 0.5 mM TCEP, 3% glycerol, 20 uM ZnCl2, 0.2 U/ul SUPERase-In; smFRET: 25 mM HEPES pH 7.0, 150 mM KCl, 0.01% octaethylene glycol monododecyl ether, 0.2 mM TCEP, 6 mM BME, 1.5 mM Trolox, oxygen scavenger, room temperature, excess U2AF1 (1000 nM) with heterodimer. The note with it: protein: recombinant;recombinant; tags: N-terminal His6-SUMO-MBP with AAA linker; C-terminal extra Ala;GST cleaved; Cy3/Cy5 on C181 and C324; copies: 1;1; label: biotin on annealed DNA.

Data set [3] deals with T2, His6SumoMBP-U2AF1 S34F;U2AF2 Cy3/Cy5 (human;human, UniProt Q01081;P26368-2 1-188;85-342, S34F;C67S|A181C;C305A;Q324C). Nature of the data set: smFRET; RNA tethered; slightly more open than DEK(-3U); Anisotropy: 150 mM NaCl, 25 mM HEPES pH 6.8, 0.5 mM TCEP, 3% glycerol, 20 uM ZnCl2, 0.2 U/ul SUPERase-In; smFRET: 25 mM HEPES pH 7.0, 150 mM KCl, 0.01% octaethylene glycol monododecyl ether, 0.2 mM TCEP, 6 mM BME, 1.5 mM Trolox, oxygen scavenger, room temperature, excess U2AF1 (1000 nM) with heterodimer. Particulars: protein: recombinant;recombinant; tags: N-terminal His6-SUMO-MBP with AAA linker; C-terminal extra Ala;GST cleaved; Cy3/Cy5 on C181 and C324; copies: 1;1; label: biotin on annealed DNA.

For data set [4], the target named is T2, His6SumoMBP-U2AF1 S34F;U2AF2 Cy3/Cy5. Description: smFRET; RNA tethered; 25% closed; Anisotropy: 150 mM NaCl, 25 mM HEPES pH 6.8, 0.5 mM TCEP, 3% glycerol, 20 uM ZnCl2, 0.2 U/ul SUPERase-In; smFRET: 25 mM HEPES pH 7.0, 150 mM KCl, 0.01% octaethylene glycol monododecyl ether, 0.2 mM TCEP, 6 mM BME, 1.5 mM Trolox, oxygen scavenger, room temperature, excess U2AF1 (1000 nM) with heterodimer. Particulars: protein: recombinant;recombinant; tags: N-terminal His6-SUMO-MBP with AAA linker; C-terminal extra Ala;GST cleaved; Cy3/Cy5 on C181 and C324; copies: 1;1; label: biotin on annealed DNA.

Data set [5] deals with T1, His6SumoMBP-U2AF1;U2AF2 Cy3/Cy5. Description: smFRET; RNA tethered; open 0.4 FRET; Anisotropy: 150 mM NaCl, 25 mM HEPES pH 6.8, 0.5 mM TCEP, 3% glycerol, 20 uM ZnCl2, 0.2 U/ul SUPERase-In; smFRET: 25 mM HEPES pH 7.0, 150 mM KCl, 0.01% octaethylene glycol monododecyl ether, 0.2 mM TCEP, 6 mM BME, 1.5 mM Trolox, oxygen scavenger, room temperature, excess U2AF1 (1000 nM) with heterodimer. The note with it: protein: recombinant;recombinant; tags: N-terminal His6-SUMO-MBP with AAA linker; C-terminal extra Ala;GST cleaved; Cy3/Cy5 on C181 and C324; copies: 1;1; label: biotin on annealed DNA.

The target in data set [6] is His6SumoMBP-U2AF1;U2AF2 Cy3/Cy5 D215R/G319R (human;human, UniProt Q01081;P26368-2 1-188;85-342, C67S|A181C;D215R;C305A;G319R;Q324C). Nature of the data set: smFRET; RNA tethered; about half closed; Anisotropy: 150 mM NaCl, 25 mM HEPES pH 6.8, 0.5 mM TCEP, 3% glycerol, 20 uM ZnCl2, 0.2 U/ul SUPERase-In; smFRET: 25 mM HEPES pH 7.0, 150 mM KCl, 0.01% octaethylene glycol monododecyl ether, 0.2 mM TCEP, 6 mM BME, 1.5 mM Trolox, oxygen scavenger, room temperature, excess U2AF1 (1000 nM) with heterodimer. The note with it: protein: recombinant;recombinant; tags: N-terminal His6-SUMO-MBP with AAA linker; C-terminal extra Ala;GST cleaved; Cy3/Cy5 on C181 and C324; copies: 1;1; label: biotin on annealed DNA.
Chain of His6SumoMBP-U2AF1;U2AF2 Cy3/Cy5 D215R/G319R (Q01081 1-188 C67S, chain 1 of 2): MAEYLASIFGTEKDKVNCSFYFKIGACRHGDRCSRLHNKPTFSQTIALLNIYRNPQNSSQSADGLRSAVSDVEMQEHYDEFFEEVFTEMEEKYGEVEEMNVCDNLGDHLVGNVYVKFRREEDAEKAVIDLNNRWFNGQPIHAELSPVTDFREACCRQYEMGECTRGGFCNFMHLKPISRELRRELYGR
Chain of His6SumoMBP-U2AF1;U2AF2 Cy3/Cy5 D215R/G319R (P26368 85-342 A181C/D215R/C305A/G319R/Q324C, chain 2 of 2): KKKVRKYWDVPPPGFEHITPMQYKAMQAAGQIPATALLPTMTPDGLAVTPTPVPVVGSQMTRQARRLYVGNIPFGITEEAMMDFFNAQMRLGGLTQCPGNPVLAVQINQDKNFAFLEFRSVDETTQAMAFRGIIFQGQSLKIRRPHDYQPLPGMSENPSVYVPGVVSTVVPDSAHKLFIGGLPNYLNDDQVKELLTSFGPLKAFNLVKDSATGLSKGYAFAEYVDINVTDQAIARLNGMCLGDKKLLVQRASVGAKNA

T1 sequence (Q01081 1-188 C67S, chain 1 of 2): as the sequence (Q01081 1-188 C67S, chain 1 of 2) above
T1 sequence (P26368 85-342 A181C/C305A/Q324C, chain 2 of 2): as the sequence (P26368 85-342 A181C/D215R/C305A/G319R/Q324C, chain 2 of 2) above, with R131D, R235G counted along it
T2 sequence (Q01081 1-188 S34F/C67S, chain 1 of 2): as the sequence (Q01081 1-188 C67S, chain 1 of 2) above, with S34F counted along it
T2 sequence (P26368 85-342 A181C/C305A/Q324C, chain 2 of 2): as the sequence (P26368 85-342 A181C/D215R/C305A/G319R/Q324C, chain 2 of 2) above, with R131D, R235G counted along it
Chain of His6SumoMBP-U2AF1;U2AF2 (Q01081 1-188 C67S, chain 1 of 2): as the sequence (Q01081 1-188 C67S, chain 1 of 2) above
Chain of His6SumoMBP-U2AF1;U2AF2 (P26368 other isoform, or with tags, fused parts or gaps C67S|, chain 2 of 2): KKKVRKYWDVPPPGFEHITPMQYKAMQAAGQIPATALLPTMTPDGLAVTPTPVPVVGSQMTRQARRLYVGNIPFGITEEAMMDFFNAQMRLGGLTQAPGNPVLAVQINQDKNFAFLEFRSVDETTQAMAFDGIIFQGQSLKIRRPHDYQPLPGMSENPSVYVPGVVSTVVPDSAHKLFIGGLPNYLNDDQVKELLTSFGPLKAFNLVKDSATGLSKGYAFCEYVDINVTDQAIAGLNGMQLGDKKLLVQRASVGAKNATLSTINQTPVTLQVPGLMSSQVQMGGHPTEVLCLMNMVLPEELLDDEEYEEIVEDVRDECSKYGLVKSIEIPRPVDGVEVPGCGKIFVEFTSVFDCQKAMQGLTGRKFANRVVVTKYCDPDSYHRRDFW
Chain of U2AF2 Cy3/Cy5 isolated subunit (P26368 113-342 A181C/C305A/Q324C): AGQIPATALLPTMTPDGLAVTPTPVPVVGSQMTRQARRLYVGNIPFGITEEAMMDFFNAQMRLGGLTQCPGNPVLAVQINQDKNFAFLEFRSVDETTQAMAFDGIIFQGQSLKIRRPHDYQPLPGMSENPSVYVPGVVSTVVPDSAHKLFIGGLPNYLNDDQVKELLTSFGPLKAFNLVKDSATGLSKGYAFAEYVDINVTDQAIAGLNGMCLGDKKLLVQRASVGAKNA
Chain of U2AF1 untagged;U2AF2 (Q01081 1-193, chain 1 of 2): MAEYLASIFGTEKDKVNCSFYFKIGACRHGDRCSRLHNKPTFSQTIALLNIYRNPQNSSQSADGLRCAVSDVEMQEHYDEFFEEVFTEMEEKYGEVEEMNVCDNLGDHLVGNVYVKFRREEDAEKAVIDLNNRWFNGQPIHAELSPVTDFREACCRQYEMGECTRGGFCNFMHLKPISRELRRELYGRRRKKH
Chain of U2AF1 untagged;U2AF2 (P26368 other isoform, or with tags, fused parts or gaps |, chain 2 of 2): as the sequence (P26368 other isoform, or with tags, fused parts or gaps C67S|, chain 2 of 2) above
Chain of U2AF1 UHM (dZn);U2AF2 (Q01081 43-146 C67S, chain 1 of 2): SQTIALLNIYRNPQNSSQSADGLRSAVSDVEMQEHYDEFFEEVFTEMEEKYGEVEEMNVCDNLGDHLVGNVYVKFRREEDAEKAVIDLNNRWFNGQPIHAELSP
Chain of U2AF1 UHM (dZn);U2AF2 (P26368 other isoform, or with tags, fused parts or gaps C67S|, chain 2 of 2): as the sequence (P26368 other isoform, or with tags, fused parts or gaps C67S|, chain 2 of 2) above

CUGUCCCUUUUUUUUCACAGCUCGCGGUUGAG (ssRNA) [Fl-AdML]: the Kd with His6SumoMBP-U2AF1;U2AF2 was 120 ± 15 nM. For the same molecule, the “fold weaker binding affinity (Kd ratio)” value with U2AF1 UHM (dZn);U2AF2 is 35 fold weaker than heterodimer with zinc knuckles. Moreover, the binding result with U2AF1 untagged;U2AF2 is “binds”.
Regarding UACUAAAUUAAUUUCCAGAAAAGAGU (ssRNA, 3' PEG18-DNA conjugate) [DEK(-3C)], the binding result in data set [1], in [2] and in data set [3] was “binds” in each case.
Regarding UCCCUUUUUUUUCCACAGCUCGCGGU (ssRNA, 3' PEG18-DNA conjugate) [AdML tethered], the binding result in data set [4], in [5] and in data set [6] was “binds” each time.

As a reminder, the Kd is the concentration at which binding is half-saturated.
